Test results taken from patent US20220056104A1 (Janssen / Centocor, published 2022).
Substitutions are numbered along the chain they refer to. Numbers in names are those of the source.

T1: Recombinant DR3-Fc (R&D Systems, cat. #943-D3) (UniProt Q93038 25-199, limits assumed)
T1 construct: dimeric MW~92 kDa; also called DR3 receptor; Fc-DR3; not shown: Fc part of the bought fusion
T1 sequence (looked up): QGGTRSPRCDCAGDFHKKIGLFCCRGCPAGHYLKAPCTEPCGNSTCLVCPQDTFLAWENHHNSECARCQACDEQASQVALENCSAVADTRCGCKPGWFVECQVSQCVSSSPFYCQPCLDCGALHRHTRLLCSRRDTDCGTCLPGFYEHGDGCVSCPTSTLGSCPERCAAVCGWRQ

T2: DcR3 (UniProt O95407 30-300, limits assumed)
T2 construct: the construct is not described; also called decoy receptor DcR3; TNFRSF6B
T2 sequence (looked up): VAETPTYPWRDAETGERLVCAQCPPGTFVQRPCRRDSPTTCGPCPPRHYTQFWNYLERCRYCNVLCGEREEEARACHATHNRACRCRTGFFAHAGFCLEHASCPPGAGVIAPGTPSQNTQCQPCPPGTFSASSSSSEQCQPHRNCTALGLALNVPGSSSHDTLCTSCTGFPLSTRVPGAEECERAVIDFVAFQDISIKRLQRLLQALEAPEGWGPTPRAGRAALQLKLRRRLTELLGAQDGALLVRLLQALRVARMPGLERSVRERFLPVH

B1: TL1W25 (His-TEV-hTL1A 72-251 N207A) (ligand)
chain: HHHHHHENLYFQGLKGQEFAPSHQQVYAPLRADGDKPRAHLTVVRQTPTQHFKNQFPALHWEHELGLAFTKNRMNYTNKFLLIPESGDYFIYSQVTFRGMTSECSEIRQAGRPNKPDSITVVITKVTDSYPEPTQLLMGTKSVCEVGSAWFQPIYLGAMFSLQEGDKLMVNVSDISLVDYTKEDKTFFGAFLL
notes: also called TL1W25 (N207A)
B2: TL1W99 (His-TEV-TL1A S176A) (ligand)
chain: B1 chain with S118A, A149N
notes: also called TL1W99 (S176A)
B3: TL1W33 (His-TEV-hTL1A 72-251 R103A) (ligand)
chain: B1 chain with R45A, A149N
notes: also called TL1W33 (R103A)
B4: TL1W79 (His-TEV-TL1A R103E) (ligand)
chain: B1 chain with R45E, A149N
notes: also called TL1W79 (R103E)
B5: TL1W30 (His-TEV-hTL1A 72-251 N112E) (ligand)
chain: B1 chain with N54E, A149N
notes: also called TL1W30 (N112E)
B6: TL1W78 (His-TEV-TL1A R103H) (ligand)
chain: B1 chain with R45H, A149N
notes: also called TL1W78 (R103H)
B7: TL1W39 (His-TEV-TL1A L123G) (ligand)
chain: B1 chain with L65G, A149N
notes: also called TL1W39 (L123G)
B8: TL1W85 (His-TEV-TL1A G124S) (ligand)
chain: B1 chain with G66S, A149N
notes: also called TL1W85 (G124S)
B9: TL1W97 (His-TEV-TL1A K173S) (ligand)
chain: B1 chain with K115S, A149N
notes: also called TL1W97 (K173S)
B10: TL1W81 (His-TEV-TL1A K111S) (ligand)
chain: B1 chain with K53S, A149N
notes: also called TL1W81 (K111S)
B11: TL1W94 (His-TEV-TL1A M158E) (ligand)
chain: B1 chain with M100E, A149N
notes: also called TL1W94 (M158E)
B12: TL1W93 (His-TEV-TL1A M158K) (ligand)
chain: B1 chain with M100K, A149N
notes: also called TL1W93 (M158K)
B13: TL1W41 (His-TEV-TL1A E120A) (ligand)
chain: B1 chain with E62A, A149N
notes: also called TL1W41 (E120A)
B14: TL1W42 (His-TEV-TL1A F114A) (ligand)
chain: B1 chain with F56A, A149N
notes: also called TL1W42 (F114A)
B15: TL1W84 (His-TEV-TL1A E120H) (ligand)
chain: B1 chain with E62H, A149N
notes: also called TL1W84 (E120H)
B16: TL1W32 (His-TEV-hTL1A 72-251 Y188A) (ligand)
chain: B1 chain with Y130A, A149N
notes: also called TL1W32 (Y188A)
B17: TL1W102 (His-TEV-TL1A S176K) (ligand)
chain: B1 chain with S118K, A149N
notes: also called TL1W102 (S176K)
B18: TL1W40 (His-TEV-TL1A L123S) (ligand)
chain: B1 chain with L65S, A149N
notes: also called TL1W40 (L123S)
B19: TL1W47 (His-TEV-TL1A E241A) (ligand)
chain: B1 chain with A149N, E183A
notes: also called TL1W47 (E241A)
B20: TL1W37 (His-TEV-TL1A L123E) (ligand)
chain: B1 chain with L65E, A149N
notes: also called TL1W37 (L123E)
B21: TL1W31 (GD: Single chain MMB in CBIS; His-TEV-hTL1A 72-251 R103Q) (ligand)
chain: B1 chain with R45Q, A149N
notes: also called TL1W31 (R103Q)
B22: TL1W29 (His-TEV-hTL1A 72-251 P189A) (ligand)
chain: B1 chain with P131A, A149N
notes: also called TL1W29 (P189A)
B23: TL1W82 (His-TEV-TL1A K111E) (ligand)
chain: B1 chain with K53E, A149N
notes: also called TL1W82 (K111E)
B24: TL1W98 (His-TEV-TL1A K173R) (ligand)
chain: B1 chain with K115R, A149N
notes: also called TL1W98 (K173R)
B25: TL1W28 (His-TEV-hTL1A 72-251 E190G) (ligand)
chain: B1 chain with E132G, A149N
notes: also called TL1W28 (E190G)
B26: TL1W96 (His-TEV-TL1A R170E) (ligand)
chain: B1 chain with R112E, A149N
notes: also called TL1W96 (R170E)
B27: TL1W100 (His-TEV-TL1A S176L) (ligand)
chain: B1 chain with S118L, A149N
notes: also called TL1W100 (S176L)
B28: TL1W90 (His-TEV-TL1A R156K) (ligand)
chain: B1 chain with R98K, A149N
notes: also called TL1W90 (R156K)
B29: TL1W44 (His-TEV-TL1A P189K) (ligand)
chain: B1 chain with P131K, A149N
notes: also called TL1W44 (P189K)
B30: TL1W43 (His-TEV-TL1A Y188S) (ligand)
chain: B1 chain with Y130S, A149N
notes: also called TL1W43 (Y188S)

target: T1, Recombinant DR3-Fc (R&D Systems, cat. …); assay: ELISA, DR3-Fc immobilized
Experimental: All ELISA-based measurements were collected in triplicate, and error values report the standard error between measurements. Recombinant DR3-Fc (R&D Systems, cat. #943-D3), dimeric MW˜92 kDa, was non-specifically immobilized onto plates (Nunc maxisorp, cat. #436110) in 100 μL DR3-Fc, diluted to 10 μg/mL onto a 96-well White Maxisorp plate (Nunc, cat #436110) (O/N, 4° C.). Plates were block for 1 hour at room temperature with 250 μl/well of casein buffer and blocking buffer was removed. 50 μL of TL1A variants were diluted in StartingBlock PBS (Thermo Fisher Scientific), at 25 μg/mL, diluting 3× over each well, according to the plate map description for 20160623) per well on a 96-well White Maxisorp plate (Nunc, cat #: 436110) (overnight at 4° C.).
Plates were washed three times with TBST. 100 μl/well polyclonal rabbit anti-human TL1A-biotin antibody (diluted 1:1000 in Starting Block PBS) was added and plates were incubated for 1 hour at room temperature with shaking at 150 rpm. TL1A-biotin antibody was removed and 100 μl/well streptavidin-HRP conjugate (diluted 1:10,000 in Starting Block PBS) was added to plates. Plates were incubated for 1 hour at room temperature with shaking at 150 rpm. Plates were washed three times with TBST. 100 μl/well POD Chemiluminescence substrate (Roche, cat #: 11582950001) was added immediately prior to reading plate luminescence using a Molecular Devices M5 plate reader with a delay setting of 100 ms.
Variants of TL1A were generated and tested for binding to DR3 and DcR3 by ELISA as described.

| EC50 [nM] | Rel EC50 | Binder |
| --- | --- | --- |
| 13.4 | 0.5 ratio (head: nM) | B1 |
| 34.8 | 1.3 ratio (head: nM) | B2 |
| 25 | 1 ratio (head: nM) | B3 |
| 204 | 7.8 ratio (head: nM) | B4 |
| 16.4 | 0.6 ratio (head: nM) | B5 |
| 77.2 | 2.9 ratio (head: nM) | B6 |
| 184 | 7 ratio (head: nM) | B7 |
| 296 | 11.3 ratio (head: nM) | B8 |
| 131 | 5 ratio (head: nM) | B9 |
| 34.4 | 1.3 ratio (head: nM) | B10 |
| 58.7 | 2.2 ratio (head: nM) | B11 |
| 22.5 | 0.9 ratio (head: nM) | B12 |
| 100 | 3.8 ratio (head: nM) | B13 |
| 77.7 | 3 ratio (head: nM) | B14 |
| 182 | 7 ratio (head: nM) | B15 |
| 565 | 21.6 ratio (head: nM) | B16 |
| 182 | 6.9 ratio (head: nM) | B17 |
| 30.7 | 1.2 ratio (head: nM) | B18 |
| 260 | 9.9 ratio (head: nM) | B19 |
| 423 | 16.1 ratio (head: nM) | B20 |
| 9.5 | 0.4 ratio (head: nM) | B21 |
| 710 | 27.1 ratio (head: nM) | B22 |
| 25.8 | 1 ratio (head: nM) | B23 |
| 2050 | 78.4 ratio (head: nM) | B24 |
| 22.6 | 0.9 ratio (head: nM) | B25 |
| 87 | 3.3 ratio (head: nM) | B26 |
| 324 | 12.4 ratio (head: nM) | B27 |
| 188 | 7.2 ratio (head: nM) | B28 |
| 168 | 6.4 ratio (head: nM) | B29 |
| 207 | 7.9 ratio (head: nM) | B30 |

target: T2, DcR3; assay: ELISA, DcR3

| EC50 [nM] | Rel EC50 | Binder |
| --- | --- | --- |
| 3.7 | 0.8 ratio (head: nM) | B1 |
| 11.5 | 2.5 ratio (head: nM) | B2 |
| 3.3 | 0.7 ratio (head: nM) | B3 |
| 7.1 | 1.5 ratio (head: nM) | B4 |
| 4.7 | 1 ratio (head: nM) | B5 |
| 8.1 | 1.8 ratio (head: nM) | B6 |
| 38.2 | 8.3 ratio (head: nM) | B7 |
| 57.1 | 12.4 ratio (head: nM) | B8 |
| 6.7 | 1.5 ratio (head: nM) | B9 |
| 50.9 | 11.1 ratio (head: nM) | B10 |
| 18.7 | 4.1 ratio (head: nM) | B11 |
| 55.9 | 12.1 ratio (head: nM) | B12 |
| 32.6 | 7.1 ratio (head: nM) | B13 |
| 11.4 | 2.5 ratio (head: nM) | B14 |
| 55.7 | 12.1 ratio (head: nM) | B15 |
| 7.6 | 1.7 ratio (head: nM) | B16 |
| 29.2 | 6.3 ratio (head: nM) | B17 |
| 16.4 | 3.6 ratio (head: nM) | B18 |
| 1310 | 285 ratio (head: nM) | B19 |
| 24.3 | 5.3 ratio (head: nM) | B20 |
| 2.5 | 0.5 ratio (head: nM) | B21 |
| 7.6 | 1.7 ratio (head: nM) | B22 |
| 10.6 | 2.3 ratio (head: nM) | B23 |
| 27.8 | 6 ratio (head: nM) | B24 |
| 5.7 | 1.2 ratio (head: nM) | B25 |
| 16.4 | 3.6 ratio (head: nM) | B26 |
| 15 | 3.3 ratio (head: nM) | B27 |
| 11 | 2.4 ratio (head: nM) | B28 |
| 59.1 | 12.8 ratio (head: nM) | B29 |
| 72.2 | 15.7 ratio (head: nM) | B30 |
